For test [1], the target named is T1, human melanocortin-3 receptor (hMC3-R) (human, UniProt P41968 1-323).
T1 construct: whole, on cells; membranes prepared from hMC3-R cells were used; also called Melanocortin Receptor 3
The test can be described thus: 125I-NDP-α-MSH competition, hMC3-R membranes. As to the method:
(§1) The competitive inhibition binding assay was conducted using membranes prepared from hMC3-R, hMC4-R, hMC5-R, and B-16 mouse melanoma cells (containing MC1-R) using 0.4 nM ¹²⁵I-NDP-alpha-MSH (New England Nuclear, Boston, Mass., USA) in 50 mM HEPES buffer containing 1 mM MgCl₂, 2 mM CaCl₂, and 5 mM KCl, at pH 7.2. […] Incubation was for 90 minutes at room temperature, after which the assay mixture was filtered and the membranes washed three times with ice cold buffer. The filter was dried and counted in a gamma counter for remaining radioactivity bound to the membranes. 100% specific binding was defined as the difference in radioactivity (cpm) bound to cell membranes in the absence and presence of 1 μM α-MSH. […] Each assay was conducted in triplicate and the actual mean valves are described.
(§2) The methods and assays set forth in Example 1 were followed.

Test [2] concerns the target T2, human melanocortin-5 receptor (hMC5-R) (human, UniProt P33032 1-325).
T2 construct: whole, on cells; membranes prepared from hMC5-R cells were used; also called Melanocortin Receptor 5
The test can be described thus: 125I-NDP-α-MSH competition, hMC5-R membranes. The method, then:
as §1, §2

In test [3] the target is T3, melanocortin-1 receptor (MC1-R) of B-16 mouse melanoma cells (mouse, UniProt Q01727 1-315).
T3 construct: whole, on cells; membranes prepared from the cells were used; also called Melanocortin Receptor 1
T3 sequence (Q01727 whole entry): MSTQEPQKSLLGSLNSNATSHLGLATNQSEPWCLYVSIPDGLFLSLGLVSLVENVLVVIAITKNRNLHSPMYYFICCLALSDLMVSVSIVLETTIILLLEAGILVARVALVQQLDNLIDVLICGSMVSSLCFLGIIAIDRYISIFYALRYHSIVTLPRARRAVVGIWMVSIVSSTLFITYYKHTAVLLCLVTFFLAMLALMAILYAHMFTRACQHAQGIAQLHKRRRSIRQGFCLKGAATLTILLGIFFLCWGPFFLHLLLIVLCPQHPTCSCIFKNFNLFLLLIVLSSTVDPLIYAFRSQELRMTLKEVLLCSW
The test can be described thus: 125I-NDP-α-MSH competition, B-16 membranes. As to the method: as §1, §2

Test [4] concerns the target T4, human melanocortin-4 receptor (hMC4-R) (human, UniProt P32245 1-332).
T4 construct: whole, on cells; membranes prepared from hMC4-R cells were used; also called Melanocortin Receptor 4
Nature of the test: 125I-NDP-α-MSH competition, hMC4-R membranes. The method, then: as §1, §2

Square brackets hold non-standard residues; d marks the D form. Ends that are not written are not given here. Nle = CCCC[C@H](N)C(=O)O

The values below come from patent publication US20050282739A1 (PALATIN TECHNOLOGIES, published 2005).

Usually % Inhibition stands for the change of the read-out against control, counted positive when it falls. The low end stands for a response near the control, the high end for a response far below the control.

T1 sequence (P41968 whole entry): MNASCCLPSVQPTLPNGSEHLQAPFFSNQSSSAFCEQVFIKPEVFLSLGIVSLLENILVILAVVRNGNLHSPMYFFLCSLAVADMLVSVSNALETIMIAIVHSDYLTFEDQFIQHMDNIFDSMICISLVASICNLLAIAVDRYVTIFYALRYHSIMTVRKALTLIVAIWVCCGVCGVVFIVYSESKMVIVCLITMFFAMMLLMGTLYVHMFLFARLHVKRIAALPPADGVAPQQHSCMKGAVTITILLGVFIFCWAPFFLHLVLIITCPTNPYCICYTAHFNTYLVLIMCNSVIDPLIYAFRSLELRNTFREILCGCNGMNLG
T4 sequence (P32245 whole entry): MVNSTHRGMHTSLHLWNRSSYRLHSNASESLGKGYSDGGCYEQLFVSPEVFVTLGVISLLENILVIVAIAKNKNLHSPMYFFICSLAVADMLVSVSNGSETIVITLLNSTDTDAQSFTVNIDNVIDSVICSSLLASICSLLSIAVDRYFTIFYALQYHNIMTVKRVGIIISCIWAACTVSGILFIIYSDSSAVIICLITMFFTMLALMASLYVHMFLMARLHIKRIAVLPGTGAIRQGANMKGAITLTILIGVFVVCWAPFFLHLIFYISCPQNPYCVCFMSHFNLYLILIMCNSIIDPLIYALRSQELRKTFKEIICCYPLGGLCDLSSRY
T2 sequence (P33032 whole entry): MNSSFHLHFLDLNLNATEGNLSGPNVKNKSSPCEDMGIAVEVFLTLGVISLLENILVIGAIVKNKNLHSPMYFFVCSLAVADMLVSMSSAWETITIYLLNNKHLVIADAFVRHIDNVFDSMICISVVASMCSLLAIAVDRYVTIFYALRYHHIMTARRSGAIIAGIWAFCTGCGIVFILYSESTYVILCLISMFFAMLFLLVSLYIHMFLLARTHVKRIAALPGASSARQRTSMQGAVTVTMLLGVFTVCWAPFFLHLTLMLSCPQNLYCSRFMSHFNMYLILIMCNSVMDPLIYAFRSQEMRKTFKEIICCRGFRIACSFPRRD

B1: metallopeptide 2-8 (peptide)
peptide: Ac-SYS[Nle]EH[dC]FRWGKPV-NH2
modifications: also: oxorhenium(V) N3S1 chelate at D-Cys 7
In the case of B1, the “% Inhibition at 1 µM” value in test [1] worked out at 0%; in test [2], 29%; in test [3], 69%; in test [4], 25%.

B2: metallopeptide 2-10 (peptide)
peptide: Ac-SYS[Nle][dC]EHFRWGKPV-NH2
modifications: also: oxorhenium(V) N3S1 chelate at D-Cys5
As to B2, the “% Inhibition at 1 µM” value in test [1] was 0%; in test [2], 0%; in test [3], 65%; in test [4], 18%.

B3: metallopeptide 4-3 (peptide)
peptide: YV[Nle]GHFRWDCRF-NH2
modifications: also: oxorhenium(V) N3S1 chelate: C10 SG + backbone N of W8, D9, C10, bridge at 10 via Re(V)=O, other end not in the chain
With B3, the “% Inhibition at 1 µM” value turned out to be 18% in test [1], 65% in test [2], 44% in test [3] and 23% in test [4].

B4: metallopeptide 2-6 (peptide)
peptide: Ac-SYS[Nle]EHFR[dC]WGKPV-NH2
modifications: also: oxorhenium(V) N3S1 chelate at D-Cys9
In the case of B4, the “% Inhibition at 1 µM” value in test [1] was 2%; in test [2] it was 6%; in test [3], 46%; in test [4] it was 6%.

B5: metallopeptide 4-6 (peptide)
peptide: YV[Nle]GHFCRWDRF-NH2
modifications: also: oxorhenium(V) N3S1 chelate: C7 SG + backbone N of H5, F6, C7, bridge at 7 via Re(V)=O, other end not in the chain
Turning to B5, the “% Inhibition at 1 µM” value in test [2] is 24%.

B6: metallopeptide 4-2 (peptide)
peptide: YV[Nle]GHFRWDRCF-NH2
modifications: also: oxorhenium(V) N3S1 chelate: C11 SG + backbone N of D9, R10, C11, bridge at 11 via Re(V)=O, other end not in the chain
For the molecule B6, the “% Inhibition at 1 µM” value in test [1] is 49%; in test [2] it was 51%; in test [3], 75%; in test [4], 23%.

B7: metallopeptide 4-8 (peptide)
peptide: YV[Nle]GCHFRWDRF-NH2
modifications: also: oxorhenium(V) N3S1 chelate: C5 SG + backbone N of X3, G4, C5, bridge at 5 via Re(V)=O, other end not in the chain
Take B7: the “% Inhibition at 1 µM” value in test [1] stood at 33%; in test [2] it was 45%; in test [3], 13%.

B8: metallopeptide 4-9 (peptide)
peptide: YV[Nle]CGHFRWDRF-NH2
modifications: also: oxorhenium(V) N3S1 chelate: C4 SG + backbone N of V2, X3, C4, bridge at 4 via Re(V)=O, other end not in the chain
B8: the figures for the “% Inhibition at 1 µM” value in test [1] and in test [2] were 19% and 43%, respectively.

B9: metallopeptide 4-10 (peptide)
peptide: YVC[Nle]GHFRWDRF-NH2
modifications: bridge (positions not given here); not fully specified (bridges); printed as Tyr-Val-Cys-Nle-Gly-His-Phe-Arg-Trp-Asp-Arg-Phe-NH2.; also: oxorhenium(V) N3S1 complex
On to B9, for which the “% Inhibition at 1 µM” value was determined as 10% in test [1], 17% in test [2] and 28% in test [3].

B10: metallopeptide 4-1 (peptide)
peptide: YVXGHFRWDRFC
modifications: not fully specified; Nle 3; C-terminal amide; Re complexed at Cys 12
Consider B10, for which the “% Inhibition at 1 µM” value in test [1] is 69%; in test [2], 41%; in test [3], 56%; in test [4] it was 36%.

B11: metallopeptide 2-5 (peptide)
peptide: Ac-SYS[Nle]EHFRW[dC]GKPV-NH2
modifications: also: oxorhenium(V) N3S1 chelate at D-Cys10
With B11, the “% Inhibition at 1 µM” value came out at 0% in test [1], 0% in test [2], 43% in test [3] and 4% in test [4].

B12: metallopeptide 2-4 (peptide)
peptide: Ac-SYS[Nle]EHFRWG[dC]KPV-NH2
modifications: also: oxorhenium(V) N3S1 chelate at D-Cys11
Regarding B12, the “% Inhibition at 1 µM” value in test [1] amounted to 27%; in test [2], 21%; in test [3], 91%; in test [4], 40%.

B13: metallopeptide 4-5 (peptide)
peptide: YV[Nle]GHFRCWDRF-NH2
modifications: also: oxorhenium(V) N3S1 chelate: C8 SG + backbone N of F6, R7, C8, bridge at 8 via Re(V)=O, other end not in the chain
As for B13, the “% Inhibition at 1 µM” value in test [1] turned out to be 87%; in test [2] it was 68%; in test [3], 89%; in test [4] it was 74%.

B14: metallopeptide 4-7 (peptide)
peptide: YV[Nle]GHCFRWDRF-NH2
modifications: also: oxorhenium(V) N3S1 chelate: C6 SG + backbone N of G4, H5, C6, bridge at 6 via Re(V)=O, other end not in the chain
On to B14, for which the “% Inhibition at 1 µM” value in test [1] is 17%; in test [2] it was 15%.

B15: metallopeptide 2-2 (peptide)
peptide: Ac-SYS[Nle]EHFRWGKG[dC]V-NH2
modifications: also: oxorhenium(V) N3S1 chelate at D-Cys13
For the molecule B15, the “% Inhibition at 1 µM” value in test [1] is 26%; in test [2] it was 32%; in test [3], 93%; in test [4], 28%.

B16: metallopeptide 2-1 (peptide)
peptide: SYSXEHFRWGKGVC
modifications: N-terminal acetyl; Nle 4 (X in letters); D-Cys 14; C-terminal amide; Re complexed at D-Cys 14
B16: the “% Inhibition at 1 µM” value in test [1] came to 72%; in test [2] it was 53%; in test [3] it was 97%; in test [4], 46%.

B17: metallopeptide 2-12 (peptide)
peptide: Ac-SY[dC]S[Nle]EHFRWGKPV-NH2
modifications: also: oxorhenium(V) N3S1 chelate at D-Cys3
For B17, the “% Inhibition at 1 µM” value in test [1] came out at 21%; in test [2] it was 17%; in test [3], 97%; in test [4], 47%.

B18: metallopeptide 2-11 (peptide)
peptide: Ac-SYS[dC][Nle]EHFRWGKPV-NH2
modifications: also: oxorhenium(V) N3S1 chelate at D-Cys4
For B18, the “% Inhibition at 1 µM” value in test [2] worked out at 0%; in test [3], 95%; in test [4], 37%.

B19: [Nle3]-γ-MSH parent polypeptide Tyr-Val-Nle-Gly-His-Phe-Arg-Trp-Asp-Arg-Phe-NH2 (peptide)
peptide: YVXGHFRWDRF
modifications: Nle 3; C-terminal amide
notes: not complexed to Re
Regarding B19, the “% Inhibition at 1 µM” value came out at 85% in test [1], 43% in test [2], 83% in test [3] and 58% in test [4].

B20: metallopeptide 2-3 (peptide)
peptide: Ac-SYS[Nle]EHFRWGK[dC]PV-NH2
modifications: also: oxorhenium(V) N3S1 chelate at D-Cys12
For B20, the “% Inhibition at 1 µM” value in test [1] worked out at 41%; in test [2] it was 38%; in test [3], 91%; in test [4] it was 25%.

B21: metallopeptide 2-9 (peptide)
peptide: Ac-SYS[Nle]E[dC]HFRWGKPV-NH2
modifications: also: oxorhenium(V) N3S1 chelate at D-Cys 6
As to B21, the “% Inhibition at 1 µM” value in test [1] worked out at 13%; in test [2] it was 2%; in test [3], 92%; in test [4], 35%.

B22: metallopeptide 4-4 (peptide)
peptide: YV[Nle]GHFRWCDRF-NH2
modifications: also: oxorhenium(V) N3S1 chelate: C9 SG + backbone N of R7, W8, C9, bridge at 9 via Re(V)=O, other end not in the chain
B22: the “% Inhibition at 1 µM” value turned out to be 20% in test [1], 47% in test [2], 52% in test [3] and 39% in test [4].

B23: metallopeptide 2-7 (peptide)
peptide: Ac-SYS[Nle]EHF[dC]RWGKPV-NH2
modifications: also: oxorhenium(V) N3S1 chelate at D-Cys8
In the case of B23, the “% Inhibition at 1 µM” value in test [1] amounted to 0%; in test [2], 0%; in test [3], 54%; in test [4], 6%.
